According to paper PMC8261865, “A Structural View on the Stereospecificity of Plant Borneol‐Type Dehydrogenases” (Chemcatchem, 2021):

Columns and labels:
AaADH2 = biological target: T1, AaADH2 (Artemisia annua, UniProt E5DD06); assay: spectrophotometric cofactor use; assay type: biochemical
T1 construct: gene Adh2
T1 sequence (E5DD06 1-265): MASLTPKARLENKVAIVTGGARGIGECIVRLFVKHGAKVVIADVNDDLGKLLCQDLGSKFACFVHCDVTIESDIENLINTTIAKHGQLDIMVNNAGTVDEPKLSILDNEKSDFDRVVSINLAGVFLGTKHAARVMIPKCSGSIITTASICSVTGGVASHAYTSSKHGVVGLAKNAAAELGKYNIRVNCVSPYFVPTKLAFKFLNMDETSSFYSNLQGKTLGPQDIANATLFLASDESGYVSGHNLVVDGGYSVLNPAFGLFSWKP

SrBDH1 = biological target: T2, SrBDH1 (Salvia rosmarinus, UniProt A0A8K1HPF5); assay: X-ray crystal structure of binary complex ([…] Å); assay type: binding; details: NAD+ co-purified with the enzyme; two crystal forms (high salt; PO/OH)
T2 construct: N-terminal His-tag (pET15b), codon-optimised, E. coli BL21(DE3); homotetramer by SEC/MALS
T2 sequence (A0A8K1HPF5 1-270): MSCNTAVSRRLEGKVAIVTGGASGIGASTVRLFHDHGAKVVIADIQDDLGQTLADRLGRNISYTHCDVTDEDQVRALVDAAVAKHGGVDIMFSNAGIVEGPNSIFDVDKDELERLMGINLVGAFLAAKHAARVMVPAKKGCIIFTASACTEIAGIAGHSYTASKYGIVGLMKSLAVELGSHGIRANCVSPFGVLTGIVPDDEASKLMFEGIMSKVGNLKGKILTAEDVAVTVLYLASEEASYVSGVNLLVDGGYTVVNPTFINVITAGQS

[1] = biological target: Borneol-type dehydrogenase 1 from Salvia rosmarinus (Salvia rosmarinus); assay: crystal structure; sitting-drop vapor diffusion at 18 °C; two conditions: high NaCl (2.7-3.2 M, Bis-Tris pH 5.5-7.2) and pentaerythritol propoxylate (PO/OH, HEPES pH 7.0-7.8); tetramer in both
[2] = biological target: Borneol-type dehydrogenase 1 from Salvia rosmarinus (Salvia rosmarinus); assay: SEC; HiLoad 16/60 Superdex 200; Tris-HCl 100 mM, 500 mM NaCl, pH 8; 1 mL/min; calibrated with mass standards (44-440 kDa)
[3] = biological target: Borneol-type dehydrogenase 1 from Salvia rosmarinus (Salvia rosmarinus); assay: SEC-MALS; Superdex 200 increase 10/300 with miniDAWN TREOS and refractive index detector; 18 °C
[4] = biological target: Borneol-type dehydrogenase 2 from Salvia rosmarinus (Salvia rosmarinus); assay: SEC; HiLoad 16/60 Superdex 200; Tris-HCl 100 mM, 500 mM NaCl, pH 8; 1 mL/min; calibrated with mass standards (44-440 kDa)
[5] = biological target: Borneol-type dehydrogenase 3 from Salvia officinalis (Salvia officinalis L.); assay: as above

## NC(=O)c1ccc[n+]([C@@H]2O[C@H](COP(=O)(O)OP(=O)(O)OC[C@H]3O[C@@H](n4cnc5c(N)ncnc54)[C@H](OP(=O)(O)O)[C@@H]3O)[C@@H](O)[C@H]2O)c1 [NADP^+]
AaADH2
  spectrophotometric cofactor use: AaADH2 was the only enzyme also capable of using NADP^+

## NC(=O)c1ccc[n+]([C@@H]2O[C@H](COP(=O)(O)OP(=O)(O)OC[C@H]3O[C@@H](n4cnc5c(N)ncnc54)[C@H](O)[C@@H]3O)[C@@H](O)[C@H]2O)c1 [NAD^+]
SrBDH1
  X-ray crystal structure of binary complex (2.8 Å): the structure represents the binary complex (SrBDH1 ⋅ NAD^+ /high salt)

## Borneol-type dehydrogenase 1 from Salvia rosmarinus (enzyme)
[1]
  stoichiometry N: 4
[2]
  stoichiometry N: 4
[3]
  stoichiometry N: 4

## Borneol-type dehydrogenase 2 from Salvia rosmarinus (enzyme)
[4]
  stoichiometry N: 4

## Borneol-type dehydrogenase 3 from Salvia officinalis (enzyme)
[5]
  stoichiometry N: 4
